Results from the nanobody polyreactivity screen of Harvey et al. (2022).

Test: yeast display, Sf9 membrane polyspecificity reagent, FACS + sequencing; frameworks hold sequencing errors
How it was run: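 After 36–48 hours of galactose induction, yeast (Saccharomyces cerevisiae BJ5465) displaying a synthetic nanobody library were stained at 4 °C for 1 hour with 10% biotinylated, detergent-solubilized Sf9 membrane reagent. Streptavidin microbeads enriched the stained cells before FACS sorting into low and high (top ~1%) gates on anti-HA and streptavidin fluorescence. Each clone's polyreactivity label reflects its gate of origin.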

Sequence	polyreactivity (PSR sort gate)
QVQLVESGGGLLQAGGSLSLSCAASGSIFVTNAMGWYRQAPGKERELVAAISVSGGSTYYADSVKGRFTISRDNAKYTVYLQMNSLKPEDTAVYYCNTVRSPPGHDYWGQGTQVTLSS	low polyreactivity
QVQLVESGGGLVQAGGSLRLSCAASGSTFQVYAMGWYRQAPGKERELVASITSGGSTYADSVKGRFTISRDNAKNTVYLQINSLKPEDTAVYYCAAGGYFYPYTYDYWGQGTQVTVSS	low polyreactivity
QVQLVESGGGLVQAGGSLRLSCAASGRTFVYYAMGWYRQAPGKERELVASISSVGTTKYADSVKGRFTISRDNAKNTVYLQMNSLKPEDTAVYYCAAVPLSRNIFDSWGQGTQVTVSS	low polyreactivity
QVQLVESGGGLVQAGGSLRLSCAASGSTIFGNVMGWYRQAPGKERELVAVITNRGGSTYYADSVKGRFTISRDNAKNTVYLQMNSLTPEDTAVYYCNARPLYHFWYYSGEEYGYWGQGTQVSVSS	high polyreactivity
QVQLVESGGGLVQEGGSLRLSCAASGRIFWSYAMGWYRQAPGKERELVAAITWRTGRTYYADSVKGRFTISRDNAKNTVYLQMNSLKPEDTAVYYCAAEGYLGGQSYNGLNYDSWGQGTQVTVSS	low polyreactivity
QVQLVESGGGLVQAGGSLRLSCAASGNTFYRYAMGGYRQSPGKERELVAAITWSGSRTYYADSVKGRFTISRDNAKYTVYLQMNRLKPEDTAVYYCAAPFWYVGPAMDYWGQGTQVTVSS	low polyreactivity
QVQLVESGGGLVQAGGSLRLSCAASGRIFLANAMGWYRQAPGKERELVAAISYSGGSTYYADSVKGRFTISRDNAKNTVYLQMNSLKPEDTAVYYCAADAFTWYTGRAWKYYYWGQGTQVTVSS	low polyreactivity
QVQLVESGGGLVKAGGSLRLSCAASGRIFYYNTMGWYRQAPGKERELVAAITTNGGSTYYADSVKGRFTISRDNAKNTVYLQMNSLKPEDTAVYYCNRDRYPYYYAYNYWGQGTQVTVSS	low polyreactivity
QVQLVESGGGLVQAGGSLRLSCADSGFIFVPYAMGWYRQAPGKERELVATITGRGDSTYYADSVKWRFTISRDNALNTVYLQMNSLKTEDTSLFYCAVDPIRLWAYDYWGQGTQVTVSS	low polyreactivity
QVQLVESGGGLVQAGGSLRLSCAASGGTFSLNAMGWYRQAPGKEREFVAGITWGGGRTYYADSVKGRFTISRDNAKNTVYLQMNSLKPEDTAVYYCAAGAWRGPYSGYYYWGQGTQVTVSS	low polyreactivity
QVQLVESGGGLVQAGGSLRLSCAASGIIFLLYAMGWYRQAPGKERELVAAITNGGRTNYADSVKGRFTISRDNAKNTVYLQMNSLKPEDTAVYYCNAVLSVPDYTLFDYWGQGTQVTVSS	low polyreactivity
QVQLVESRGGLVQAGGSLRLSCAASGRTFYSYAMGWSRQAPGKERELVAAITSSGGSTYYADSVKGRFTISRDNAKNTVYLQMNSLKPEDTAVYYCAAGKPYSSYWSWGYWTNLEDDYWGQGTQVTVSS	high polyreactivity
QVQLVESGGGLVQAGGSLRLSCAASGITSPSYAMGWYRQAPGKERELVAAISTSGGDTYYADSVKGRFTISRDKAKNTVYLQMNSLKPEDTAVYYCAAPVPAYQYYYRLKSFGRRYDHWGQGTQVTVSS	low polyreactivity
QVQLVESGGGLVQAGGSLRLSCAASGRTFPYNAMGWYRQAPGKERELVAAISSGGSTNYADSVKGRFTISRDNAKNTVYLQMNSLKPEDTAVYYCAVTGWPRYTWYSYGYWGQGTQVTVSS	low polyreactivity
QVQLVESGGGLVQAGGSLRLSCAASGSIFHGYAMGWYRQAPGKERELVAAISYTGGRTYYADSVKGRFTISRDNAKNTVYLQMNSLKPEDTAVYYCADDSQLTKFYYWGQGTQVTVSS	high polyreactivity
QVQLVESGGGLVQAGGSLRLSCAASGIILSGYAMGWYRQAPGKDRELVAAIRRGGSTYYADSVKGRFTISRDNAKNTVYLQMNSLKPEDTAVYYCNAYSSRKVKWWDDYWGQGTQVTVSS	high polyreactivity
QVQLVESGGGLVQAGGSLRLSCAASGSIFGWYAMGLYRQAPGKERELVAAITFSSVSTYYADSVKGRFTISRDNAKNTVYLQMNSLKPEVTAVYYCGAVVYYTFDYWVQGTQVTVSS	low polyreactivity
QVQLVESGGGLVQAGGSLRLSCAASGSIFSTYGMGWYRQAPGKERELVAAITTSGGRTYYADSVKGRFTISRDNAKNTVYLQMKSLKPEVTAVYYCKAVRGGRYGLDYWGQGTQVNVSS	high polyreactivity
QVQLVESGGGLVQAGGSLRLICAASGSTIFENVMGWYRQAPGKEREFVAAINTSGGSTYYADSVKGRFTISRDNAKNTVYLQMNILKPEDTAVYYCARDSYWEMDYWGQGTQVTVSS	low polyreactivity
QVQLVESGGGLVQAGGSLRLSCAASGSIFKYNPMGWDRQAPGKERELVAAITYRGASTYYADSVKGRFTISRDNAKNTVYLQMNSLKPEDTAVYYCNAKVRKSRFYYWGQGTQVTVSS	high polyreactivity
QVQLVESGGGLVQAGGSLRLSCAASGLTFAYYDMGWYRPAPGKERELVAAITSGGTTNYADSVKGRFTISRDNAKNTVYLQMNSQKPEDTADYYCAADRYYWGRYTLNYWGQGTQVTVSS	low polyreactivity
QVQLVESGGGLVQAGGSLRLSCAASGFTLRANAMGWYRQAPGKERELVAAITRTGGRTYYADSVKGRFTISRDNAKNTVYLQMNSLKPEDTAVYYCAADHGPSKWYDYWGQGTEVTVSS	low polyreactivity

Sequence	polyreactivity (PSR sort gate)
QDQLVESAGGLVQAGGSLRLSCAASGFTFINNDMGWYRQAPGKERELVAAISDSDGTTYYADSVKGRFTISLDHAKNTVYLQMNSLKPEDTAGYYCAADVVPTWEDEYWRQGTQVTVSS	low polyreactivity
QVQLVESGGGLVQAGGSLRLSCAASGSTFANYAMGWYRQAPGKERELVAAISRGGNTYYADSVKGRFTISRDNAKNTVYLQMNSLKPEDTAVYYCAARAPRFSRSSQPGDYWGQGTQVTVSS	high polyreactivity
QVQLVESGGGLVQAGGSLRLTCAASGVTFRYYAMVWYRQAPGKERELVAAITGSGTRTYYADSVKGRFTISRDNAKNTLYLQMNSLKPEDTAVYYCNAPRQPRWFDYWGQGTQVTVSS	high polyreactivity
QVQLVESGGGLVQAGGSLRLSCAASGFIFRYYALGWYRQAPGKERELVAAIDYSGGSTNYADSVKGRFTISRDNAKNTVYLQMNSLKPEDNAVYYCNAEYTWHRGYDYWGQGTQVTVSS	low polyreactivity
QVQLVESGGGLVQAGGSLRLSCAASGGISTAYTMGWYRQAPGKERELVADITRSGGRTYYADSVKGRFTISRDNAKNTVYLQMNSLKPEDTAVYYCARTYYYRFNYWGQGTQVTVSS	high polyreactivity
QVQLVESGGGLVQAGGSLRLSCAASGLMVTYYAMCGYRPAPGKARELVAAINYSGGSTYDADSVKGRFTISRDNAKTTVYLLMNSLKPEDTAVYYCAARRFTQTEGPMGYWGQGTQVTFSS	low polyreactivity
QVQLVESGGGLVQAGGSLRLSCAASGRIFYIYTMGWYILAPGKERELVAGITRAGSTNYADSVKGRFTISRDNAKNTVYLQMNSLKPEDTAVYYSNAYIWIYGFDYCGQGTQVTVSS	high polyreactivity
QVQLVESGVGLVQAGGSLRLSCAASGRIFCYYAMGWYRQAPGKERELVATINGGGSTNYADSVKGRFTISRDNAKNTVYLQMNSLKPEDTAVYYCAAAQWAYWLLYKYWGQVTQVTVSS	low polyreactivity
QDQLVESGGGLVQAGGSLRLSCAASGLTFYQYDMGWYRQAPGKERELVAAISRSGGRTYYADSVKGRFTISRDIAMITVYLQMNSLKPEDTAVYYCARPDKRLEYSENYYWGQGSQVTVSS	high polyreactivity
QVQLVESGGGLVQAGGSLRLSCAASGGTFYANAMGWSRQAPGKEREFVASISRSVGSTYYADSVKGRFTISRDNAKNTVYLQMNSLKPEDTAVYYCAARRYSRPRYTYYSWGQGTQVTVSS	high polyreactivity
QFQLVESGGGLVQAGGSLRLSCAASGFIFKSNAMGWYRQAPGKERELVAAITKRGGSTYYADSVKGRFTISGDYAKNTVYLQMNSLKPEDTAVYYCAVRKPYSRYTVNYDSWGQGTQVTVSS	high polyreactivity
QVQLVESGGGLVQAGGSLRLSCAASGFTFPRYVMGWYRQAPGKEREFVAAITFSGGSTYYADSVKGRFTNSRDNAKNTVYLQMNSLKPEDTAVYYCAAGASLWRLGLKMGYWGQGTQVTVSS	low polyreactivity
QVQLVESGGGLVQAGGSLRLSCAASGSIFWGNAMGWYRQAPGKERELVAGISRGGSTYYADSVKGRFTISRDNAKNTVYLQMNSLKPEDTAVYYCNADSDPVTAGYDYWGQGTQVTVSS	low polyreactivity
QDQLVESGGGLVQAGGSLRLSCAACGIMFGKYAMGWYREAPGKERELVAAITWSGGRTYYADSVTGRFTISRANAKNTVYLPMNSLKPEDTAVYYCAADVKYGYDWGQGTQVTVSS	high polyreactivity
QVQLVESGGGLVQAGGSLRLSCAASGFIFPDYGMGSYRQAPGKERELVAAIYRNGVSTYYADSVKGRFTISRDNAKNTVYLQMKSLKPEDTAVYYCAARFYRIRRVSKSGYYWGLGTQVTVSS	low polyreactivity
QVQLQESVGGQVQAGGSLRLSCAASGTIFLYAFIGWYRQAPGKEPELVAAIDVGTTTNYADSVKGRFTISRDNAKNTVYLQMNSLKPEDTAVYYCAANLGYLDDLGYWGQGTQVTVSS	low polyreactivity
QVQLVESGGGLVQAGGSLRLSCAASGRIFYTYAMGWYRQAPGKERELVAVISSGGSTNYADSVKGRFTISRDNAKNTVYLQMNSLKPEDTAVYYCAAYGTKWGRGFYITGYGYWGQGTQVTVSS	low polyreactivity
QVQLVESGGGLVQAGASLRLICAASGSTFQGNAIGWNRQAPGKERELVAAISRSGGSTYADSVKGRFTISRDNAKNTVYLQLNSLKPEDTAVYYCAAYSGVGYLWFDYWGQGTQVTVSS	low polyreactivity
QVQLVESGGGLVQAGGSLRLSCAASGRTFYYNAMGWYRQAPGKERELVARISTIGGNTFYADSVKGRFTISRDNAKNTVYLQMNSLKPEDTAVYYCATTGGPSWRKYDYWGQGTQVTVSS	high polyreactivity
QVQLVESGGGLVQAGGSLRLSCAASGYIIRRYSMVWYIQAPGKESEWVAVISSRGGSTYYADSVKGRFTISRDYAKNTVYLQMNSLKPEDTPVYYCAARSGSRATVLSDYWGQGTQVTVSS	high polyreactivity
QVQLVESGGGLVQAGGSLRLSCAASGRIIAYYAMGWYRQAPGKERELVAGINSGGGSTYYADSVKGRFTISRDNAKNTVYLQMNSLKPEDTAVYYCAARAGGVDGYDYWGQGTQVTVSS	high polyreactivity
